{"source": "paper PMC7196632", "about": "“NAD^+ biosynthesis in bacteria is controlled by global carbon/nitrogen levels via PII signaling” (The Journal of Biological Chemistry, 2020)", "molecules": {"B1": {"name": "AbNadE2 (AbNadE2^Gln) (Azospirillum baldaniorum) (protein)", "chain": "MTDRLSIALAQINPTVGAITTNIDRIRDARAEAAARGADLMVCPELAVTGYPPEDLVLKPFFLDVVEQAVRELAAETADGGPALLVGAPWRDGDKRHNAALLLDGGRIAATRFKVDLPNYGVFDEKRVFTPGPLPGPINVRGVRLGVPICEDMWSADVIETLAESGAEILVVPNGSPFELGKHDQRVQLAVGRVTESSLPLLYVNQVGGQDELVFDGASFALGADCRLVAQAPAFTEHLLITRWERGEDDVWSCADTECVAPPEGLESIYAALVLALRDYVTKNRFPGVILGLSGGIDSALAAAIAVDALGAERVHGVMMPSPHTAQDSLDDAAESAELLGCKLDTVPIVPAMEAFERMLLPAFAGRDPDATEENIQARSRGVTLMALSNKFGPMVLSTGNKSEMSVGYATLYGDMCGGYAVLKDVYKTTVYALARWRNAHQTEGAFGPAGRVVPERVLVKAPTAELKPDQTDQDTLPPYDALDDILRCLVEKDLGVAEIVARGHAPEVVDRVWRMLHLAEYKRRQAPPGPKITPRLFNRERRYPITNGFGSIA", "notes": "full-length, untagged ('native AbNadE2'), recombinant from E. coli, purified as described previously; homodimer"}}, "key": {"[1]": {"target": "Azospirillum brasilense type 2 glutamine-dependent NAD synthetase AbNadE2, native (untagged), purified (Azospirillum brasilense)", "sequence (A0A0P0EJG6 entry or part of it)": "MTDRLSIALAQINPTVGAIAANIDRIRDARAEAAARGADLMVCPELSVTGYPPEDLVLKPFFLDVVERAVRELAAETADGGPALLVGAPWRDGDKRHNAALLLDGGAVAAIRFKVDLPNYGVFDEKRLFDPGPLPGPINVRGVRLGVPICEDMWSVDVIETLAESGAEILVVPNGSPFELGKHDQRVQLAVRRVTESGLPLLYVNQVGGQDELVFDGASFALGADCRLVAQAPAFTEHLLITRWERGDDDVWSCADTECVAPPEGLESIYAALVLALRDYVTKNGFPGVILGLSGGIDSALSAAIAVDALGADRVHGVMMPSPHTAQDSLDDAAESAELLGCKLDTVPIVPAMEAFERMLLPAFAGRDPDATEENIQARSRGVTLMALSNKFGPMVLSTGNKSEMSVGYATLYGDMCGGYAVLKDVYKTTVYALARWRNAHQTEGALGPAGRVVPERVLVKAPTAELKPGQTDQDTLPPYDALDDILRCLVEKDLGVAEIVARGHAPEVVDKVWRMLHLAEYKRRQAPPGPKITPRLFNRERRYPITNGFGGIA"}, "[2]": {"target": "T1, GlnZ (with AbNadE2; 2-OG site on GlnZ) (Azospirillum brasilense, UniProt P70731)", "T1 construct": "GlnZ homotrimer, non-uridylylated (native in activity assay; N-terminal His-tag kept in BLI), recombinant from E. coli; with Glutamine-dependent NAD(+) synthetase", "T1 sequence (P70731 1-112, one chain of several)": "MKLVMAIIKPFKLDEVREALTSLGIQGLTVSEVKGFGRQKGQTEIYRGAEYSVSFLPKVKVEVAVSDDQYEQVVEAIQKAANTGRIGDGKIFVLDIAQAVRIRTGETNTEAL", "assay": "loss of GlnZ relief of NAD+ inhibition of AbNadE2 (PPi release)", "type": "biochemical"}, "[3]": {"target": "T1, GlnZ (with AbNadE2; 2-OG site on GlnZ)", "assay": "biolayer interferometry, inhibition of GlnZ-AbNadE2 association", "type": "binding", "procedure": "biolayer interferometry, inhibition of GlnZ-AbNadE2 association on GlnZ (with AbNadE2; 2-OG site on GlnZ) | The binding curves and Ki were determined using the manufactureŕs software"}, "[4]": {"target": "N-terminal His-tagged GlnZ protein of Azospirillum brasilense (Azospirillum brasilense) (UniProt P70731)", "sequence (P70731 entry or part of it)": "as the sequence (P70731 1-112, one chain of several) above", "assay": "BLI; Octet K2; His-GlnZ immobilised on Ni-NTA sensor tip, AbNadE2 as analyte, with ADP (methods: 50 mM Tris-HCl pH 7, 50 mM KCl, 10 mM MgCl2, 2 mM ADP, 2.5 mM NAD+, 1 mg/ml BSA)"}, "[5]": {"target": "N-terminal His-tagged GlnZ protein of Azospirillum brasilense (Azospirillum brasilense) (UniProt P70731)", "assay": "BLI; Octet K2; His-GlnZ (2 ug/ml) immobilised on Ni-NTA sensor tip, AbNadE2 30-2000 nM (dimer) as analyte, with ATP (legend: 5 mM MgCl2, 1 mM ATP; methods: 50 mM Tris-HCl pH 7, 50 mM KCl, 10 mM MgCl2, 2 mM ATP, 2.5 mM NAD+, 1 mg/ml BSA)"}, "[6]": {"target": "T2, ScNadE2 (ScNadE^Gln) (Synechocystis sp. PCC 6803, UniProt P74292)", "T2 construct": "gene nadE; full-length, N-terminal His-tag removed with TEV protease, recombinant from E. coli (pTEV5-based pASnadESc); dimer", "T2 sequence (P74292 1-558)": "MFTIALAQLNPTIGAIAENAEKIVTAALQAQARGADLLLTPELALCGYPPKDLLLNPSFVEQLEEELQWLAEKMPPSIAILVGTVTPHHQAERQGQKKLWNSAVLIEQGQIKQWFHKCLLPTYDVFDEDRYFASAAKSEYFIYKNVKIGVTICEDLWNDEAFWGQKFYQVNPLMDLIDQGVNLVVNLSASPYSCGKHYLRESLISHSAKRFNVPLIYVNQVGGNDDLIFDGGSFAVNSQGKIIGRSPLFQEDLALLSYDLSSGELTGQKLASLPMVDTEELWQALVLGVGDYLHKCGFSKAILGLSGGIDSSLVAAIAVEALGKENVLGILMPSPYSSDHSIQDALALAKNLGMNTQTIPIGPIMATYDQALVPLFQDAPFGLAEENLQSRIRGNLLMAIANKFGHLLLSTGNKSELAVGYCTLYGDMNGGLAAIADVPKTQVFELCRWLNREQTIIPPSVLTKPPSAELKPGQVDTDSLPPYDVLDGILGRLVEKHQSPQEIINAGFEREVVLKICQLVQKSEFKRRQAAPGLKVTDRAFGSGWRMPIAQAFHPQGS", "assay": "discontinuous assay of PPi release (EnzChek pyrophosphate kit)", "type": "biochemical", "details": "no PII (2 uM BSA); 100 nM enzyme, 4 mM ATP, 2 mM NaAD, 4 mM L-glutamine, 10 mM MgCl2, pH 8, 30 C"}, "[7]": {"target": "T3, GlnZ-AbNadE2 complex (NAD+ site on AbNadE2) (Azospirillum baldaniorum, UniProt A0A9P1JPD2)", "T3 construct": "gene nadE; with Nitrogen regulatory protein P-II 2", "T3 sequence (P70731 1-112 partner, one chain of several)": "as the sequence (P70731 1-112, one chain of several) above", "assay": "discontinuous assay of PPi release (EnzChek pyrophosphate kit)", "type": "biochemical"}, "[8]": {"target": "T4, AbNadE2 (AbNadE2^Gln) (Azospirillum baldaniorum, UniProt A0A9P1JPD2)", "T4 construct": "gene nadE; full-length, untagged ('native AbNadE2'), recombinant from E. coli, purified as described previously; homodimer", "T4 sequence (A0A9P1JPD2 1-554)": "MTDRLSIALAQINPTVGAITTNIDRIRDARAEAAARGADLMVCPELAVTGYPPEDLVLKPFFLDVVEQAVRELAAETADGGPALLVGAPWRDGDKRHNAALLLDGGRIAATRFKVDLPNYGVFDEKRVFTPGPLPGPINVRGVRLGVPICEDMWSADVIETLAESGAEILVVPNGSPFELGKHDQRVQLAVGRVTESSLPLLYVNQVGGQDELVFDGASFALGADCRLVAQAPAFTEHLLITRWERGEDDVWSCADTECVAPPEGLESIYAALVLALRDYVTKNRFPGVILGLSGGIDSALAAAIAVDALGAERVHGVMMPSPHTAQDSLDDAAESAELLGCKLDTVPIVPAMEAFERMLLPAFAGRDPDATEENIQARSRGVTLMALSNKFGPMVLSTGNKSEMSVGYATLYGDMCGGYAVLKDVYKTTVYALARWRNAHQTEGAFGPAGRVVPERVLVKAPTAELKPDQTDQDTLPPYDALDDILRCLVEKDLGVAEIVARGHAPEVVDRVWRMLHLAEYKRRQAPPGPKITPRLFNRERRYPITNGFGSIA", "assay": "discontinuous assay of PPi release (EnzChek pyrophosphate kit)", "type": "biochemical", "details": "read-out: IC50 (also called Ki)"}, "[9]": {"target": "T5, HsNadE2 (HsNadE2^Gln) (Herbaspirillum seropedicae, UniProt D8IX05)", "T5 construct": "gene nadE; full-length, His-tag removed by thrombin, recombinant from E. coli; dimer", "T5 sequence (D8IX05 1-565)": "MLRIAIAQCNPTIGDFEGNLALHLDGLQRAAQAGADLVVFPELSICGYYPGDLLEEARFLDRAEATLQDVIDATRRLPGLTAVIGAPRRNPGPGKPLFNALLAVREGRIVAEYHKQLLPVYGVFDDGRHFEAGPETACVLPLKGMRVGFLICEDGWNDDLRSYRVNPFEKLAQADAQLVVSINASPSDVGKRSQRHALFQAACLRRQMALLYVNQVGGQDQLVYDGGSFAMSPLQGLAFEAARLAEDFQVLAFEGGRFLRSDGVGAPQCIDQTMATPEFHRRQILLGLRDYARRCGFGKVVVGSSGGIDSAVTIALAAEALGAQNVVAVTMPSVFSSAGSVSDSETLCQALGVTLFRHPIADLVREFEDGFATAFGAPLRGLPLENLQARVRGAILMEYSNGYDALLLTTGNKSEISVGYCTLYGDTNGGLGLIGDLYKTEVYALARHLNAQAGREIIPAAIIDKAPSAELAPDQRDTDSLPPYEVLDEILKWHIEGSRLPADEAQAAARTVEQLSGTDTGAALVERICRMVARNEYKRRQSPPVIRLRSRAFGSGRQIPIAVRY", "assay": "discontinuous assay of PPi release (EnzChek pyrophosphate kit)", "type": "biochemical", "details": "no PII (2 uM BSA); 100 nM enzyme, 4 mM ATP, 2 mM NaAD, 4 mM L-glutamine, 10 mM MgCl2, pH 8, 30 C"}, "[10]": {"substrate": "Nc1ncnc2c1ncn2[C@@H]1O[C@H](COP(=O)(O)OP(=O)([O-])OC[C@H]2O[C@@H]([n+]3cccc(C(=O)O)c3)[C@H](O)[C@@H]2O)[C@@H](O)[C@H]1O", "assay": "NAD synthetase activity, Michaelis-Menten fit", "type": "biochemical, Azospirillum baldaniorum", "details": "without NAD+, pH 8, 30 C"}, "[11]": {"substrate": "NC(=O)CC[C@H](N)C(=O)O", "assay": "purified protein", "details": "without NAD+, pH 8, 30 C"}}}
{"molecule": "N-terminal His-tagged GlnZ protein of Azospirillum brasilense (from UniProt P70731 1-112) (natural protein)", "values": [{"measurement": "activation of AbNadE2 NAD synthetase activity (PPi formation) at 2.5 mM NAD+, 100 nM AbNadE2, GlnZ 0.25-10 uM (trimer); Kact", "setting": "[1]", "result": 640, "unit": "nM"}]}
{"molecule": "O=C(O)CCC(=O)C(=O)O", "note": "[2-oxoglutarate]", "values": [{"measurement": "IC50", "setting": "[2]", "result": 15.5, "unit": "µM"}, {"measurement": "Ki", "setting": "[3]", "result": 52.1, "unit": "µM"}]}
{"molecule": "Azospirillum brasilense type 2 glutamine-dependent NAD synthetase AbNadE2, native (untagged), purified (enzyme)", "values": [{"measurement": "Kd", "setting": "[4]", "result": 0.15, "unit": "µM"}, {"measurement": "Kd", "setting": "[5]", "result": 0.3, "unit": "µM"}, {"measurement": "koff", "setting": "[5]", "result": 0.0272, "unit": "s⁻¹"}, {"measurement": "kon", "setting": "[5]", "result": 90900, "unit": "M⁻¹ s⁻¹"}]}
{"molecule": "NC(=O)c1ccc[n+]([C@@H]2O[C@H](COP(=O)([O-])OP(=O)(O)OC[C@H]3O[C@@H](n4cnc5c(N)ncnc54)[C@H](O)[C@@H]3O)[C@@H](O)[C@H]2O)c1", "note": "[NAD^+]", "values": [{"measurement": "relative activity vs NAD+ concentration", "setting": "[6]", "result": "In both cases, NadE2^Gln was inhibited by NAD^+ in a dose-dependent manner"}, {"measurement": "IC50", "setting": "[7]", "result": 2500, "unit": "µM"}, {"measurement": "IC50", "setting": "[8]", "result": 1000, "unit": "µM"}, {"measurement": "relative activity vs NAD+ concentration", "setting": "[9]", "result": "In both cases, NadE2^Gln was inhibited by NAD^+ in a dose-dependent manner"}]}
{"molecule": "B1", "values": [{"measurement": "Km", "setting": "[10]", "result": 80, "unit": "µM"}, {"measurement": "Km", "setting": "[11]", "result": 720, "unit": "µM"}]}
